Test results as given in patent US20140161725A1 (H LEE MOFFITT CANCER CENTER AND RESEARCH INSTITUTE, published 2014).
Where no end group is shown, it is not given here. The star is where a group is joined. Dhc(Pam)2 = S-[2,3-bis(palmitoyl)oxy-(R)-propyl]-cysteine, CCCCCCCCCCCCCCCC(=O)OC[C@H](CSC[C@H](N)C(=O)*)OC(=O)CCCCCCCCCCCCCCC; PEGO = not defined here

How the values were obtained:
[1] = target: T1, human Toll-like receptor 2 (TLR2) (human, UniProt O60603 21-784); assay: Eu TRF competition binding; competitor compound 11
T1 sequence (O60603 21-784): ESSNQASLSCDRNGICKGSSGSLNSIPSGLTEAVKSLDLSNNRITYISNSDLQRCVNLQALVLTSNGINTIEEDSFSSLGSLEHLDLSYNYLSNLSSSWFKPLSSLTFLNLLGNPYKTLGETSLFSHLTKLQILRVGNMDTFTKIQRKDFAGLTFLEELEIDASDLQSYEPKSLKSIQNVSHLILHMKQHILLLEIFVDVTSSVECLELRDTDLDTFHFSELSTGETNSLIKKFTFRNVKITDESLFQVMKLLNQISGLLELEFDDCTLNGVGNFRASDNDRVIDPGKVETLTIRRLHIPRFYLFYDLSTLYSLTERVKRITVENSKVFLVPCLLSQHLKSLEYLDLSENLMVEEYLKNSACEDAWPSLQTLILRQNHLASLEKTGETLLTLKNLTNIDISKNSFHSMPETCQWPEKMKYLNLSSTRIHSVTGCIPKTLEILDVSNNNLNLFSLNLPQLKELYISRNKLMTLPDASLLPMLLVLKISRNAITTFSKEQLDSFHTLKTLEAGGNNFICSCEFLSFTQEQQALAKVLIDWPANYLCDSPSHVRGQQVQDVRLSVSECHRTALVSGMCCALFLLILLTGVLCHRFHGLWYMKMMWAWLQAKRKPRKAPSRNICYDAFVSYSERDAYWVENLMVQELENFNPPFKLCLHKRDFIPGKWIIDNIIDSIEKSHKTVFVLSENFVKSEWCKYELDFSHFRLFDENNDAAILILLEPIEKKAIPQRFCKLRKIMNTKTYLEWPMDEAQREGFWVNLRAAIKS

[2] = target: T1, human Toll-like receptor 2 (TLR2); assay: Eu TRF competition binding on SU.86.86 cells; competitor 90 nM compound 11
[3] = target: T1, human Toll-like receptor 2 (TLR2); assay: cell-based or functional assay
[4] = target: T1, human Toll-like receptor 2 (TLR2); assay: in cyto competition binding assay
[5] = target: T1, human Toll-like receptor 2 (TLR2); assay: Eu TRF competition binding on HEK-293/hTLR2 cells; competitor 90 nM compound 11
[6] = target: T1, human Toll-like receptor 2 (TLR2); assay: Eu TRF saturation binding on TLR2 expressing cells
[7] = target: T1, human Toll-like receptor 2 (TLR2); assay: Eu TRF saturation binding on SU.86.86 cells; non-specific binding with 1 µM Pam2CSK4
[8] = target: T1, human Toll-like receptor 2 (TLR2); assay: Eu TRF saturation binding on SU.86.86 cells
[9] = target: T1, human Toll-like receptor 2 (TLR2); assay: Eu TRF saturation binding on Capan-I cells; non-specific binding with 1 µM Pam2CSK4
[10] = target: T1, human Toll-like receptor 2 (TLR2); assay: time-resolved fluorescence saturation binding assay
[11] = target: T1, human Toll-like receptor 2 (TLR2); assay: Eu TRF saturation binding on Capan-I cells
[12] = target: T1, human Toll-like receptor 2 (TLR2); assay: Eu TRF saturation binding on HEK-293/hTLR2 cells; non-specific binding with 1 µM Pam2CSK4
[13] = target: T1, human Toll-like receptor 2 (TLR2); assay: Eu TRF saturation binding on HEK-293/hTLR2 cells
[14] = target: T1, human Toll-like receptor 2 (TLR2); assay: time-resolved fluorescence competitive binding assay
[15] = target: T1, human Toll-like receptor 2 (TLR2); assay: in vivo fluorescence imaging of TLR2 expressing SU.86.86 xenografts 24 h post-injection; competitor 20-fold excess Pam2CSK4
[16] = target: human carbonic anhydrase 9 (CAIX) (human) (UniProt Q16790); assay: in vivo fluorescence imaging of CAIX positive MDA-mb-231 tumour 24 h after injection; competitor unlabeled CAIX mAb

Compound 10: Ac-PEGO-Cys(S-[2,3-bis(palmitoyl)oxy-(R)-propyl])-Gly-DSer-PEGO-NH2 (peptide)
Ki [1]: < 100 nM
Ki [2]: 91 nM
fold of enhancement of luminescence at 1 µg/mL vs SAA at 10 µg/mL [3]: 5.2 fold
fold of enhancement of luminescence vs SAA at 1 µg/mL [3]: 14 fold
Ki [4]: 24 nM
Ki [5]: 25 nM

Compound 11: Eu-DTPA-PEGO-Cys(S-[2,3-bis(palmitoyl)oxy-(R)-propyl])-Gly-DSer-PEGO-NH2 (peptide)
Kd [6]: < 100 nM
Kd [7]: 74 nM
Bmax [8]: 270000 AFU
Kd [9]: 78 nM
Kd [10]: 30 nM
Bmax [11]: 951000 AFU
Kd [12]: 34 nM
Bmax [13]: 114000 AFU

Compound 12: Mpr-PEGO-Cys(S-[2,3-bis(palmitoyl)oxy-(R)-propyl])-Gly-DSer-PEGO-NH2 (peptide)
Ki [1]: < 100 nM
Ki [2]: 25 nM

Compound 13: IRDye800CW-Mpr-PEGO-Cys(S-[2,3-bis(palmitoyl)oxy-(R)-propyl])-Gly-DSer-PEGO-NH2 (peptide)
Ki [1]: < 100 nM
Ki [2]: 67 nM
Ki [14]: 10 nM
unblocked/blocked tumor fluorescence (fold) [15]: 1.94 fold
Ki [5]: 11 nM

CA9Ab-680 (anti-human CAIX monoclonal antibody, Clone 303123, R&D systems, conjugated to VivoTag-S 680)
fold decrease of probe fluorescence in the tumour after blocking with unlabeled CAIX mAb [16]: 1.7 times

{Ac-PEGO-Dhc(Pam)2}-GSQNLASLEE-NH2 (reading uncertain)
fold of enhancement of luminescence at 1 µg/mL vs SAA at 10 µg/mL [3]: 4.8 fold
fold of enhancement of luminescence vs SAA at 1 µg/mL [3]: 13 fold

SRFDEDDLE-NH2 (not fully specified (some residues, N-terminus))
fold of enhancement of luminescence at 1 µg/mL vs SAA at 10 µg/mL [3]: 4.2 fold
fold of enhancement of luminescence vs SAA at 1 µg/mL [3]: 11 fold
